From patent publication US4835253A, “Specific inhibitors of tissue kallikrein” (The University Hospital, priority 1987, dated 1989)

What was measured:
Assay type in all cases: biochemical, human
[1] = system: T1, N=C(N)NCCC[C@H](NC(=O)[C@H](Cc1ccccc1)NC(=O)[C@H](N)C1CCCCC1)C(=O)Nc1ccc([N+](=O)[O-])cc1; assay: Km and Vmax of tripeptide 4-nitroanilides with HUK; settings: other: tripeptide 4-nitroanilide as HUK substrate; pH 9.0; 37.0 °C
T1 construct: Human urinary kallikrein (hereinafter "HUK") was highly purified using a modification of published methods; from tissue; host or cells: human urine
Source text: (§1) An evaluation of other possible peptide sequences and their potential effect as substrate analogue inhibitors specifically of tissue kallikrein was undertaken using chromogenic substrates comprising alternate series of tripeptide 4-nitroanilides using previously described methods [Amundsen et al., "Methods For The Determination Of Glandular Kallikrein By Means Of A Chromogenic Tripeptide Substrate," in Kinins-II. Part A. Plenum Press, 1979, pages 83-95]. This methodology relies on the capacity of HUK to cleave p-nitroaniline from specifically synthesized tripeptide 4-nitroanilines. Controls for this experimental series included S-2266 comprising D-Val-Leu-Arg-4NA; S-2444 comprising D-Glu-Gly-Arg-4NA; and S-2302 comprising D-Pro-Phe-Arg-4NA respectively. The 50% inhibitory concentration (IC50) values for each synthesized tripeptide 4-nitroanilide was determined at 37 C. at pH 9.0 using the specific kallikrein substrates S-2266 (Kabi, Helena Laboratories, Beaumont, Tex.). 4.0 nanograms (hereinafter "ng") of HUK were used in each sample. Blanks lacking S-2266 were run in parallel to correct for hydrolysis of all samples. In all cases, the amount of 4-nitroaniline generated from each tripeptide was less than 10% of that observed for the hydrolysis of S-2266.
(§2) Subsequently, the Km and Vmax for each test tripeptide 4-nitroanilide was determined using conventional techniques in an HP-8450 diode array spectrophotometer (Hewlett Packard Company) attached to a HP-85 microcomputer. The multicomponent assay program was modified to allow the simultaneous determination of the reaction velocity in four samples.

[2] = system: T2, NCCCC[C@H](NC(=O)[C@H](CC1CCCCC1)NC(=O)[C@H](N)C1CCCCC1)C(=O)Nc1ccc([N+](=O)[O-])cc1; assay: Km and Vmax of tripeptide 4-nitroanilides with HUK; settings: other: tripeptide 4-nitroanilide as HUK substrate; pH 9.0; 37.0 °C
T2 construct: Human urinary kallikrein (hereinafter "HUK") was highly purified using a modification of published methods; from tissue; host or cells: human urine
Source text: as §1, §2

[3] = system: T3, N=C(N)NCCC[C@H](NC(=O)[C@H](CC1CCCCC1)NC(=O)[C@H](N)c1ccccc1)C(=O)Nc1ccc([N+](=O)[O-])cc1; assay: Km and Vmax of tripeptide 4-nitroanilides with HUK; settings: other: tripeptide 4-nitroanilide as HUK substrate; pH 9.0; 37.0 °C
T3 construct: Human urinary kallikrein (hereinafter "HUK") was highly purified using a modification of published methods; from tissue; host or cells: human urine
Source text: as §1, §2

[4] = system: T4, CC[C@H](C)[C@H](N)C(=O)N[C@@H](CC1CCCCC1)C(=O)N[C@@H](CCCNC(=N)N)C(=O)Nc1ccc([N+](=O)[O-])cc1; assay: Km and Vmax of tripeptide 4-nitroanilides with HUK; settings: other: tripeptide 4-nitroanilide as HUK substrate; pH 9.0; 37.0 °C
T4 construct: Human urinary kallikrein (hereinafter "HUK") was highly purified using a modification of published methods; from tissue; host or cells: human urine
Source text: as §1, §2

[5] = system: T5, NCCCC[C@H](NC(=O)[C@H](CC1CCCCC1)NC(=O)[C@H](N)c1ccccc1)C(=O)Nc1ccc([N+](=O)[O-])cc1; assay: Km and Vmax of tripeptide 4-nitroanilides with HUK; settings: other: tripeptide 4-nitroanilide as HUK substrate; pH 9.0; 37.0 °C
T5 construct: Human urinary kallikrein (hereinafter "HUK") was highly purified using a modification of published methods; from tissue; host or cells: human urine
Source text: as §1, §2

[6] = system: T6, N=C(N)NCCC[C@H](NC(=O)[C@H](CC1CCCCC1)NC(=O)[C@@H](N)C1CCCCC1)C(=O)Nc1ccc([N+](=O)[O-])cc1; assay: Km and Vmax of tripeptide 4-nitroanilides with HUK; settings: other: tripeptide 4-nitroanilide as HUK substrate; pH 9.0; 37.0 °C
T6 construct: Human urinary kallikrein (hereinafter "HUK") was highly purified using a modification of published methods; from tissue; host or cells: human urine
Source text: as §1, §2

[7] = system: T7, CC(=O)N[C@@H](CO)C(=O)N1CCC[C@H]1C(=O)N[C@@H](Cc1ccccc1)C(=O)N[C@@H](CCCNC(=N)N)C(=O)N[C@@H](CO)C(=O)N[C@H](C(=O)N[C@@H](CCC(N)=O)C(N)=O)C(C)C; assay: KM determination: hydrolysis of substrate analogues by HUK (HPLC, scintillation counting); settings: other: hydrolysis by HUK, pH 9.0, 37 C, thirty minutes
T7 construct: Human urinary kallikrein (hereinafter "HUK") was highly purified using a modification of published methods; from tissue; host or cells: human urine
Experimental: (§3) Human urinary kallikrein (hereinafter "HUK") was highly purified using a modification of published methods that employ ultrafiltration, aprotinin-CH-sepharose affinity chromatography, and Sephadex G-100 gel filtration [ole-MoiYoi et al., Proc. Natl. Acad. Sci. USA 76: 3121-3125 (1979)]. […] The pH of each fraction was determined immediately upon elution, and the fraction was neutralized by addition of 2.0 ml of 2M Tris-HCL buffer (pH 8.0).
(§4) KM Determination: Hydrolysis of the substrate analogue inhibitors by HUK was measured by combining the test inhibitor at different concentrations on either side of the KM value with the enzyme at pH 9.0 for thirty minutes at 37 C. The cleavage products were separated from the starting material in the digest by HPLC on a Beckman octadecylsilane (ODS) column (1×25 cm) using a thirty minute gradient of from 0-70% CH3 CN in triethylammonium phosphate buffer (pH 7.0). The starting materials and reaction products were completely resolved under these conditions. Absorbance of the HPLC effluent was monitored at 220 nm. Individual fractions were collected and the amount of peptide degradation products was quantitated by counting in a liquid scintillation counter. Samples containing individual inhibitors were incubated without HUK and solvent blanks were also chromatographed and analyzed in the same way.
(§5) For test purposes, in these HUA cleavage studies, individual peptide sequences were synthesized, purified, and characterized as previously described herein. For these cleavage studies, doubly labelled peptides were prepared using [^3 H]-valine and […] respectively. In addition, 6.0N HCL-dioxane was used for removal of tert-butoxycarbonyl protecting groups and 90% hydrogen fluoride/10% anisole (volume/volume) for global deprotection on completion of the synthesis. After extraction and gel filtration on Sephadex G-15, final purification was completed by isocratic elution from a synchrom RP-P column (2.1×25 cm) with CH3 CN--H2 O (8 ml/min). The resultant peptides were deemed to be homogeneous by amino acid analysis; high performance liquid chromatography; thin layer chromatography; and A230 /A260 ratio analysis. […]

[8] = system: T8, CC(=O)N[C@@H](Cc1ccccc1)C(=O)N[C@@H](CCCN=C(N)N)C(=O)N[C@@H](CO)C(=O)N[C@H](C(=O)N[C@@H](CCC(N)=O)C(N)=O)C(C)C; assay: as above; settings: other: hydrolysis by HUK, pH 9.0, 37 C, thirty minutes
T8 construct: Human urinary kallikrein (hereinafter "HUK") was highly purified using a modification of published methods; from tissue; host or cells: human urine
Experimental: as §3, §4, §5

[9] = system: T9, CC(=O)N1CCC[C@H]1C(=O)N[C@@H](Cc1ccccc1)C(=O)N[C@@H](CCCNC(=N)N)C(=O)N[C@@H](CO)C(=O)N[C@H](C(=O)N[C@@H](CCC(N)=O)C(N)=O)C(C)C; assay: as above; settings: other: hydrolysis by HUK, pH 9.0, 37 C, thirty minutes
T9 construct: Human urinary kallikrein (hereinafter "HUK") was highly purified using a modification of published methods; from tissue; host or cells: human urine
Experimental: as §3, §4, §5

## Human urinary kallikrein (Homo sapiens)
[1]
  Km: 0.84 µM
[2]
  Km: 46.6 µM
[3]
  Km: 1.96 µM
[4]
  Km: 1.33 µM
[5]
  Km: 48.1 µM
[6]
  Km: 12.5 µM
[7]
  Km: 37.6 µM
[8]
  Km: 307 µM
  kcat: 188 mol/mol/sec
[9]
  Km: 482 µM
  kcat: 229 mol/mol/sec
